# Values quoted from earlier work, collected in PMC4340704.
# Biological target: Cys106 (UniProt position 106, LIAAICAGPTA)
# Conditions: reduced Cys106 thiol/thiolate implied; otherwise not stated
substance,measurement,value
DJ-1 (Parkinson disease protein 7) (Homo sapiens),pKa,5.4
